In patent US20120202218A1 (MODPRO, published 2012):

How the values were obtained:
[1] = molecular target: the molecule itself; experiment: Zn2+-induced gold nanoparticle aggregation (UV-vis, TEM)
[2] = molecular target: Human Carbonic Anhydrase II (human, UniProt P00918 2-260); experiment: Zn2+-induced gold nanoparticle aggregation assay, particles with 0% KE2C-C6 (JR2EC only)

B1: JR2EC (peptide)
peptide: H-NAADLEKAIEALEKHLEAKGPCDAAQLEKQLEQAFEAFERAG-OH
modifications: also: Cys22 thiol bound to gold nanoparticle surface
notes: Synthetic Glu-rich 42-residue helix-loop-helix peptide; It dimerizes and folds into a four-helix bundle at pH<6, or at pH 7 with Zn2+; Immobilized on gold nanoparticles; also called aggregating polypeptide
B1: binds [1]; no binding (tested: 70 nM) [2].
